# Laboratory results as given in US7049292 (dated 2006).
# B1: preproinsulin C22-A5 (peptide)
# chain: QPLALEGSLQKRGIVEQ
# B2: preproinsulin C19-A3 (peptide)
# chain: GSLQPLALEGSLQKRGIV
# B3: preproinsulin C4-C27 (peptide)
# chain: DLQVGQVELGGGPGAGSLQPLALE
# B4: preproinsulin C13-C32 (peptide)
# chain: GGGPGAGSLQPLALEGSLQK
# Target: HLA-DR4 (human)
# Test: competition
row,Binder,IC50 [nM]
1,B1,400
2,B2,500
3,B3,33000
4,B4,5000
